Results on one molecule are retold here after patent publication US20120088722A1 (PROTEAPEX THERAPEUTICS, published 2012).

Ends that are not written are not given here.

For test [1], the target named is T1, LTBP1 immunoprecipitated from avian hypertrophic cartilage (avian (chick embryo)).
T1 construct: An immunoprecipitate: proteins associated with LTBP1 (TGFβ LLC components) may be present; also called hypertrophic cartilage immunoprecipitates
The test is described as follows: fluorescent peptide (100 nM) binding to plate-dried LTBP1 immunoprecipitate of avian hypertrophic cartilage, reference scrambled peptide. The method, then: (§1) Peptide binding assay—Twenty-five micrograms of total equal protein from cartilage CHAPS extracts or five nanograms recombinant protein of the calcium-like EGF binding domain of LTBP1 (a kind gift of Sarah Dallas) or hypertrophic cartilage from day 17 avian embryo sterna and tibial growth plate cartilage from day 14 newborn rat pups were extracted with 0.5% CHAPS buffer and eluates immunoprecipitated with polyclonal antibody to LTBP1 and then samples were plated onto poly-L-lysine coated 96 well plates. After overnight drying, the protein-coated wells were incubated with 100 nM fluorescent-labeled peptide in Tris buffered saline [150 mM NaCl, 10 mM Tris, pH 8.0] and 20% horse serum for 4 hours at 16° C. After incubation, the wells are washed twice with binding buffer, the protein layer solubilized with 5N NaOH and fluorescence bound measured at 495 nm excitation and 520 nm emission on the LabSystems Fluoroskan Ascent CF plate reader. Statistical analyses and graphing were performed with Prism GraphPad software (ANOVA with Turkey's Analysis). A scrambled peptide of the same amino acid composition was prepared as a negative control. Competition assays were conducted in the presence of 10-fold more (1 μM) naked peptide.

Test [2] deals with T2, LTBP1 immunoprecipitated from rat tibial growth plate cartilage (rat, UniProt Q00918 21-1712, limits assumed).
T2 construct: An immunoprecipitate: proteins associated with LTBP1 may be present; also called rat tibial growth plate cartilage immunoprecipitated extracts
Put plainly: fluorescent peptide (100 nM) binding to plate-dried LTBP1 immunoprecipitate of rat tibial growth plate cartilage, reference scrambled peptide. The method, then: as §1

In test [3] the target is T3, recombinant protein of the calcium-binding, EGF-like domains of LTBP1 (CE-LTBP1).
T3 construct: It was dried onto poly-L-lysine coated wells
The test is described as follows: fluorescent peptide (100 nM) binding to plate-dried recombinant CE-LTBP1, reference scrambled peptide. The method, then:
as §1

T2 sequence (Q00918 21-1712 limits assumed): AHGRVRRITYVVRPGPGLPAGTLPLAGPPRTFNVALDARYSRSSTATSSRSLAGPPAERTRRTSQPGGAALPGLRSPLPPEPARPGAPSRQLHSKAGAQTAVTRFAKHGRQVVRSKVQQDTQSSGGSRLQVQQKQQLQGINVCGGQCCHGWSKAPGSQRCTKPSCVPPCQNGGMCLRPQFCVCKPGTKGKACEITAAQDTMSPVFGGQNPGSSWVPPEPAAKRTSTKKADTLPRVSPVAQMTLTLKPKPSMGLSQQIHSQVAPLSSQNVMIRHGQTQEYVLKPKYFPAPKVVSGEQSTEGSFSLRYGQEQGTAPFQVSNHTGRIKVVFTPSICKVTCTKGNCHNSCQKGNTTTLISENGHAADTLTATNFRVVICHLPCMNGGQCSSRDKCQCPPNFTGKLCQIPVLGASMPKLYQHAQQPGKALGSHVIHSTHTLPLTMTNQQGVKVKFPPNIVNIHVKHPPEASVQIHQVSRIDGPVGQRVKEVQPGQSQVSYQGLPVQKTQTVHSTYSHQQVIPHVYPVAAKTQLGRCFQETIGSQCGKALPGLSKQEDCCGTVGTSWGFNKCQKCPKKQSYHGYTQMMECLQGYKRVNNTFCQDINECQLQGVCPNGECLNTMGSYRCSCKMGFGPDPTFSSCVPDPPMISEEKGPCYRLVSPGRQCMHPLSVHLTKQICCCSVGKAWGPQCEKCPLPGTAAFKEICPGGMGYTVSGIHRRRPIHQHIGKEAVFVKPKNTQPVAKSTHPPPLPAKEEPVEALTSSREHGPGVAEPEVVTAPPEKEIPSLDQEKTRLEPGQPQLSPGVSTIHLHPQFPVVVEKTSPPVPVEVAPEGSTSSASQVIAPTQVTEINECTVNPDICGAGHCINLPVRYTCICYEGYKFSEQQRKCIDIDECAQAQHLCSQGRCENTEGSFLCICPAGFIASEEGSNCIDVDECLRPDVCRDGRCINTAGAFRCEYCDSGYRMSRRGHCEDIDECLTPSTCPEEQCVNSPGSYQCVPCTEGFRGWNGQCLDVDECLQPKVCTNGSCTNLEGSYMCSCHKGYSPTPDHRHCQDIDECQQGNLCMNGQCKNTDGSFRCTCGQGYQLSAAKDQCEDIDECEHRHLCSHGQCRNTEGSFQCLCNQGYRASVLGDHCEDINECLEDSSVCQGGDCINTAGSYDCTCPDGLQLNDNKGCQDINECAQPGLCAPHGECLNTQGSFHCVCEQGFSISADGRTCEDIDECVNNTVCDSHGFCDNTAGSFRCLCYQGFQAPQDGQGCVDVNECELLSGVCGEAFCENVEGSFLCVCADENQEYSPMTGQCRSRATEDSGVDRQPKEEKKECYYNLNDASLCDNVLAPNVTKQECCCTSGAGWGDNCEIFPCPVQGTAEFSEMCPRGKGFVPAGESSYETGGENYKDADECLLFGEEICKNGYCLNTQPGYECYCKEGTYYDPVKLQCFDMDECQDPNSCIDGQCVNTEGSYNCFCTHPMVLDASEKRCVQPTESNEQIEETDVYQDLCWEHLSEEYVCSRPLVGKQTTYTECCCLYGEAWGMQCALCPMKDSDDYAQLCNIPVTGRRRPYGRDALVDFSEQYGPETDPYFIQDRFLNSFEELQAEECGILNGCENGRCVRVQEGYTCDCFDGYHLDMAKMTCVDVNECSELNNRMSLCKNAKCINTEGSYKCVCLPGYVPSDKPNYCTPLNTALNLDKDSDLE

On to ELGLPKEVKKISAAVHFED (also: fluorescent-labeled in binding assay, label and position not given here, also called MPP13-19; pxpt 001-1) [MMP13-19 peptide (amino acids 93-111 of SEQ ID NO: 1)], for which the “fold binding over scrambled control” value in test [1] is 10.5 fold; in test [2], 3.9 fold. Further, the “fold binding over scrambled peptide” value in test [3] amounted to 27 fold.
